Data reported in patent publication US20100273979A1 (Affibody, published 2010).

Target: T1, rat serum albumin (rat, UniProt P02770 25-608)
T1 construct: Control coat in the screening ELISA; also called RSA
Test: method not stated (unpublished results); unpublished results; method and construct not stated

T1 sequence (P02770 25-608 limits assumed): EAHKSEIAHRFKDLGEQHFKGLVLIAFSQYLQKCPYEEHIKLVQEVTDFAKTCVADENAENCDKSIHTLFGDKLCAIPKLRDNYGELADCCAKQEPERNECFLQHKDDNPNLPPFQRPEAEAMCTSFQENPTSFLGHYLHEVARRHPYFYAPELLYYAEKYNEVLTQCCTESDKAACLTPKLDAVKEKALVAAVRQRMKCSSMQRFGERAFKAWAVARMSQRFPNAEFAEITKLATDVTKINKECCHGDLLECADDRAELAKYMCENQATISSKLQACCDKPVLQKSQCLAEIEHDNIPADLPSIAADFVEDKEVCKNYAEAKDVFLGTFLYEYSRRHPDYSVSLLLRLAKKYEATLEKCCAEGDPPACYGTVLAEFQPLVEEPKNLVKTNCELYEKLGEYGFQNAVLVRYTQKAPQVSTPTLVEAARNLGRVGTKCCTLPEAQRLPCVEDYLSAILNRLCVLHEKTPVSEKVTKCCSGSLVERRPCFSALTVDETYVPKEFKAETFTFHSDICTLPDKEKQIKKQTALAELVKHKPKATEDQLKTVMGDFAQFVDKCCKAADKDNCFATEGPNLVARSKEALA

B1: ABDwt (construct not stated; unpublished results) (other)
chain: LAEAKVLANRELDKYGVSDYYKNLINNAKTVEGVKALIDEILAALP
- Kd: 0.07 nM
